Sequences and labels used below:
B1: LINE1-full (parent)
chain: UACGUAGGUGGUUUUCCCCUGAUAGUGCUAAGGGGGCCUGGAAGUUUGGACUGGGCAGAGCUCAACACAGCGUGGCAAAGUGGCUGUGGCUAGACUGCCUCUCUGGAUUCCUCGUCACUCAGCAGGGCAUCUCUGAGAGAAAUGCC

The source of these data is the RNAGym collection of RNA variant scans (doi:10.7554/elife.90254).

The data set covers variants of B1. Put plainly: self-cleavage, relative activity (ratio to wild type); higher = more cleavage; in vitro, sequencing; the parent is a self-cleaving ribozyme.
For G54A A107G, the self-cleavage was determined as 0.47.

Take U52G U104A: the self-cleavage stood at 1.

Regarding A57G A129C, the self-cleavage came to 1.33.

For the variant A57C A94G, the self-cleavage worked out at 0.25.

Consider C56G A77G, for which the self-cleavage was 0.04.

As to G53A U73G, the self-cleavage worked out at 1.05.

For the variant G53A U73A, the self-cleavage was found to be 1.88.

Turning to G58U U115C, the self-cleavage came to 0.04.

With G54A U130C, the self-cleavage came out at 0.9.

Regarding A57C U81C, the self-cleavage was found to be 0.04.

A57C U81G: the self-cleavage was found to be 0.16.

As for G53A U108A, the self-cleavage was 0.14.

Regarding U52G U119A, the self-cleavage is 0.93.

As to C56U G74A, the self-cleavage came to 0.09.

Take A57C A107U: the self-cleavage was 0.07.

Consider G54A C145U, for which the self-cleavage is 0.54.

For G55U U102C, the self-cleavage turned out to be 0.06.

For A57G G89A, the self-cleavage turned out to be 0.04.

For A57U U132C, the self-cleavage came out at 0.14.

A57G C61U: the self-cleavage is 0.05.

Turning to G54U A129G, the self-cleavage turned out to be 1.02.

For the variant C56U C128U, the self-cleavage was 0.22.

For A57U A129U, the self-cleavage was found to be 0.11.

Regarding C56U U109C, the self-cleavage was determined as 0.03.

For the variant A57G U112A, the self-cleavage came out at 0.99.

For the variant G54A U96C, the self-cleavage was determined as 0.04.

As for G54A U96A, the self-cleavage came to 0.03.

For A57G G127A, the self-cleavage turned out to be 0.94.

Take A57C A141G: the self-cleavage is 0.11.

Turning to G55C A57U, the self-cleavage amounted to 0.02.

As to A59C U130C, the self-cleavage is 0.8.

For A57U G139U, the self-cleavage stood at 0.11.

For the variant G54A A142G, the self-cleavage was found to be 0.83.

For G53A A121U, the self-cleavage was 1.7.

On to A57U A65U, for which the self-cleavage is 0.06.

With A57G U96A, the self-cleavage is 0.05.

With A57G U96C, the self-cleavage came to 1.37.

For G55U C113U, the self-cleavage was 0.07.

A59C U87A: the self-cleavage was 0.04.

G58A U132C: the self-cleavage amounted to 0.05.

On to G53A U130A, for which the self-cleavage amounted to 1.21.

Consider A57C U96A, for which the self-cleavage was determined as 0.01.

As for A57C U96C, the self-cleavage came out at 0.08.

For A57C A129G, the self-cleavage stood at 0.14.

For the variant A57U U87C, the self-cleavage came to 0.04.

A57U U87A: the self-cleavage was 0.05.

Consider G53A U143C, for which the self-cleavage was 1.59.

As to A57G C71G, the self-cleavage was determined as 0.07.

Consider U52G U132C, for which the self-cleavage was determined as 1.42.

With G55A A92G, the self-cleavage came to 0.03.

With A57G A94G, the self-cleavage was 0.16.

Consider A57U A77G, for which the self-cleavage worked out at 0.17.

On to G58U A117G, for which the self-cleavage came out at 0.01.

As for A57U A94G, the self-cleavage was 0.14.

Turning to A57U A94U, the self-cleavage stood at 0.04.

As for A57G U73C, the self-cleavage came to 1.17.

Regarding A57G U73G, the self-cleavage is 0.69.

A57G C68A: the self-cleavage was found to be 0.06.

Regarding G55C A129U, the self-cleavage stood at 0.09.

As to A57G C128G, the self-cleavage came out at 0.55.

As to G54A U119A, the self-cleavage came out at 0.55.

As for G53A A59G, the self-cleavage came out at 0.06.

In the case of A57U A79G, the self-cleavage came out at 0.06.

Regarding A57U A79U, the self-cleavage was determined as 0.1.

For G55C U87C, the self-cleavage worked out at 0.37.

For C56U A65G, the self-cleavage is 0.03.

As for G55A U73A, the self-cleavage was 0.12.

On to G55C U73A, for which the self-cleavage came out at 0.07.

Turning to A57G U108C, the self-cleavage was 1.48.

As for A57U U91A, the self-cleavage stood at 0.07.

With A57U U91C, the self-cleavage was determined as 0.04.

For G55A A79G, the self-cleavage was 0.4.

Turning to G54C U104C, the self-cleavage turned out to be 1.3.

As to G53C U96C, the self-cleavage came to 0.09.

For the variant A57U A78G, the self-cleavage was 0.03.

Regarding A57G U87A, the self-cleavage worked out at 0.08.

G55A A142G: the self-cleavage amounted to 0.27.

Consider G58A A136G, for which the self-cleavage came out at 0.05.

Turning to C56A C120U, the self-cleavage amounted to 0.17.

On to A57U U143A, for which the self-cleavage was 0.11.

Take G54U A117G: the self-cleavage stood at 0.52.

For the variant C56U C76U, the self-cleavage was 0.34.

Take A59C U115C: the self-cleavage worked out at 1.55.

Turning to G55C G72A, the self-cleavage was determined as 0.08.

As to A59C U108C, the self-cleavage came to 1.28.

G53U U81C: the self-cleavage is 2.

In the case of C56A A124G, the self-cleavage was determined as 0.03.

Turning to C56U A107G, the self-cleavage stood at 0.1.

Take A57G A69G: the self-cleavage came to 0.21.

On to G58U G137U, for which the self-cleavage amounted to 0.03.

For the variant G58U G114A, the self-cleavage is 0.03.

Take A57G G126U: the self-cleavage turned out to be 0.65.

On to A57G A92U, for which the self-cleavage stood at 0.3.

In the case of A57G A92G, the self-cleavage amounted to 0.14.

Turning to A57U U100A, the self-cleavage worked out at 0.03.

On to C56U A92G, for which the self-cleavage is 0.06.

Turning to A57U A92G, the self-cleavage is 0.07.

On to A57U A92U, for which the self-cleavage was found to be 0.07.

In the case of G58U A129G, the self-cleavage turned out to be 0.05.

As to G54A A79G, the self-cleavage amounted to 0.4.

Regarding A57U G60A, the self-cleavage stood at 0.04.

Regarding A57U G60C, the self-cleavage came to 0.05.

With G58A U102C, the self-cleavage is 0.04.

For G53A A117G, the self-cleavage is 2.04.

As for G58A U115A, the self-cleavage was 0.1.

With G58A U115C, the self-cleavage came out at 0.06.

As to G54A U115C, the self-cleavage was determined as 1.27.

On to G54A U115G, for which the self-cleavage worked out at 1.02.

For the variant A59G A65G, the self-cleavage was found to be 0.11.

For G54U A64G, the self-cleavage was determined as 0.21.

Turning to G54A A57C, the self-cleavage was 0.07.

For G58A A117U, the self-cleavage is 0.05.

Take G58A A117C: the self-cleavage came to 0.1.

Regarding G58A U87C, the self-cleavage is 0.

Turning to G58A U143C, the self-cleavage was 0.

Take G55C: the self-cleavage was determined as 0.08.

As for G55A, the self-cleavage turned out to be 0.19.

As for G55U, the self-cleavage was 0.19.

Take G55U U134G: the self-cleavage was 0.15.

Turning to G53A G74A, the self-cleavage was determined as 1.04.

G54A U81A: the self-cleavage came out at 0.78.

A57U U81C: the self-cleavage was 0.12.

A57U U81A: the self-cleavage was 0.05.

In the case of G58U U130C, the self-cleavage is 0.05.

For G54A U85C, the self-cleavage is 0.03.

In the case of G58A C110U, the self-cleavage came out at 0.05.

In the case of G53A G88A, the self-cleavage was 0.07.

With G53A U91C, the self-cleavage is 0.53.

A57G A79G: the self-cleavage amounted to 1.32.

For the variant A57G A79C, the self-cleavage is 0.8.

Turning to C56A G106A, the self-cleavage was 0.08.

As for A57G G60A, the self-cleavage turned out to be 0.06.

With A57U A136G, the self-cleavage is 0.11.

For C56U A57G, the self-cleavage is 0.04.

On to A57G U102C, for which the self-cleavage worked out at 0.43.

For A57G A78U, the self-cleavage amounted to 1.62.

For the variant C56U A78U, the self-cleavage was 0.15.

Turning to C56U A78G, the self-cleavage came to 0.06.

Turning to G53A A138G, the self-cleavage is 1.72.

As to G58A A59G, the self-cleavage is 0.

As for A57G G74A, the self-cleavage came to 0.46.

Turning to A57U G114A, the self-cleavage was found to be 0.07.

As for G58U A141G, the self-cleavage was found to be 0.04.

On to A57G A59G, for which the self-cleavage amounted to 0.62.

On to G53A C146U, for which the self-cleavage was found to be 1.31.

With C56G, the self-cleavage was 0.07.

With C56A, the self-cleavage worked out at 0.05.

With C56U, the self-cleavage came out at 0.11.

In the case of C56U A142G, the self-cleavage worked out at 0.11.

For A57G G114A, the self-cleavage was 0.84.

On to C56A U96A, for which the self-cleavage is 0.03.

As for C56U A77U, the self-cleavage worked out at 0.11.

G53A U134A: the self-cleavage is 1.23.

As for G54A G72A, the self-cleavage was 0.45.

As for A57G A142U, the self-cleavage is 0.38.

For A57G A142G, the self-cleavage stood at 0.84.

In the case of A57G A77G, the self-cleavage was found to be 1.68.

Regarding A57G A77U, the self-cleavage came out at 0.58.

Regarding G54U U115A, the self-cleavage amounted to 0.74.

As for G58A U96C, the self-cleavage worked out at 0.04.

As to G55A U109C, the self-cleavage was 0.1.

Turning to A57G C120A, the self-cleavage was 0.93.

In the case of A57C U87C, the self-cleavage worked out at 0.

For the variant G53A U132C, the self-cleavage stood at 1.29.

Consider G54A A140G, for which the self-cleavage is 0.73.

Regarding G54A G125U, the self-cleavage turned out to be 0.69.

On to A57G A140G, for which the self-cleavage worked out at 0.91.
